Biological target: B.1.1.529 (BA.1) S1 + S2 trimer-His Recombinant Protein (SARS-CoV-2) (UniProt P0DTC2)
Assay: cryo-EM structure

“B.1.1.529 (BA.1) S1 + S2 trimer-His Recombinant Protein (from UniProt P0DTC2 324-533) (natural protein)” was tested, and the stoichiometry N was 3.
